Measurements taken from the supplement of paper PMC10567573.
± gives the standard deviation.

Experiment: protein stability index of a GFP-peptide fusion (GPS, HEK-293T) (PSI 1-6); higher = more stable
[1] = treatment: DMSO, c terminus: a fixed tail appended
[2] = treatment: MLN4924 1 uM, 8 h, c terminus: a fixed tail appended
[3] = treatment: DMSO, c terminus: native
[4] = treatment: MLN4924 1 uM, 8 h, c terminus: native
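Note: 24-mer peptide tiles fused after GFP, lentivirally expressed, FACS-sorted into six equal bins by GFP/DsRed ratio, decoded by Illumina sequencing, PSI is the read-weighted mean bin number.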

| Sequence | protein stability index [1] | protein stability index [2] | protein stability index [3] | protein stability index [4] |
| --- | --- | --- | --- | --- |
| TNITEVDAASVYTLPAGADFLMCY [CASP6] | 2.35 ± 0.34 | 2.18 ± 0.25 | – | – |
| GVGGWRDYGVDPSQFSGTLMRTCE [PPTC7] | 2.81 ± 0.36 | 3.28 ± 0.74 | – | – |
| LFQVVINPNFEVAESDYSNNIMKC [LOXL2] | 2.09 ± 0.28 | 2.5 ± 0.27 | – | – |
| QYQTVRYDILPLSPVSRNRLAQVK [CTDNEP1] | 3.02 ± 0.19 | 3.04 ± 0.29 | – | – |
| LKERYQKIGDTKRNTPIEALCENF [CSNK1G1] | 3.43 ± 0.65 | 3.44 ± 0.49 | – | – |
| EAFKNILTEIYRIVSQKQIADRAA [RAB11B] | 2.81 ± 0.4 | 2.81 ± 0.49 | – | – |
| GGPFPLPYTAPGGYLDVGSKPMY [TBX6] | – | – | 3.12 ± 0.43 | 3.43 ± 0.2 |
| DQEAVCLICAISHTHRAHTVVPLD [TRIM39] | 2.22 ± 0.21 | 2.19 ± 0.35 | – | – |
| IRKERKRLKLMQQNPAGELEGFQA [ATE1] | 3.87 ± 0.65 | 3.76 ± 0.32 | – | – |
| GRNDLQQWIEVDARRLTRFTGVIT [CPXM2] | 2.43 ± 0.062 | 2.56 ± 0.12 | – | – |
| YSLAEDTIQGVPLSSYISINSDTG [PCDHGA10] | 3.53 ± 0.2 | 3.47 ± 0.28 | – | – |
| EVKIEEPVSMEMDNHMSDKDESCY [INTS3] | 5.31 ± 0.37 | 5.37 ± 0.19 | – | – |
| ALIICYNWLHRRLAGQFLEELRKF [MOG] | 2.64 ± 0.65 | 2.47 ± 0.57 | – | – |
| QEVTKLQQQVKTNGAGVTVLRREI [FBXO28] | 3.97 ± 0.25 | 4.03 ± 0.45 | – | – |
| DAAGHGFCYCAGSHKRKRSSGSFC [GMCL1] | 3.08 ± 0.22 | 3.35 ± 0.15 | – | – |
| TKLRLERVKFRRQEANARERNRMH [NEUROD6] | 3.67 ± 0.14 | 3.92 ± 0.4 | – | – |
| EDLEATSEHFKTTSQKVARKFWWK [VAMP8] | 4 ± 0.18 | 3.82 ± 0.25 | – | – |
| ETCDLGKIKPEARRYLEKSIKMGK [NLN] | 4.09 ± 0.18 | 4.45 ± 0.23 | – | – |
| ENTIAGANHTHTFYGHSHHSHHGH [C10orf62] | 3.58 ± 0.25 | 3.78 ± 0.23 | – | – |
| LEPLKAIIQYRLPMKKNNNLYSWD [ACSBG2] | 2.57 ± 0.47 | 2.17 ± 0.2 | – | – |
| QSGATISMPCSTDKENGENVGLES [SASS6] | 5.55 ± 0.22 | 5.43 ± 0.27 | – | – |
| VSKELRMYDEKAHEWKSLAPMDAP [KLHL13] | 3.73 ± 0.36 | 4.04 ± 0.11 | – | – |
| GAGPPEPLRICPLHISVKEELDG [TRIM35] | – | – | 4.21 ± 0.32 | 4.56 ± 0.14 |
| ITTDNLQCRERREHPNLVRDHVET [TEKT4] | 4.35 ± 0.085 | 4.44 ± 0.17 | – | – |

| Sequence | protein stability index [1] | protein stability index [2] | protein stability index [3] | protein stability index [4] |
| --- | --- | --- | --- | --- |
| LDSEKPKKLRFHPKQLYFSARQGE [EHMT1] | 3.2 ± 0.038 | 3.4 ± 0.21 | – | – |
| VILNYPSPWDQEERPAQRDCSFPG [TRAF3IP2] | 2.79 ± 0.21 | 3.15 ± 0.25 | – | – |
| ESYPEDTVFYIPEDHKPGTFPKAL [DLC1] | 4.13 ± 0.31 | 4.22 ± 0.21 | – | – |
| RVFLFQAPSKEEMLSWILRINLVA [PSD2] | 2.64 ± 0.54 | 2.7 ± 0.46 | – | – |
| GAIAVFVYASDKEWIRFDQSNVLC [PTGFR] | 3.02 ± 0.34 | 2.87 ± 0.47 | – | – |
| SVMFRKWRDSKGKDKEYAEIIRKQ [UBE2R2] | 2.98 ± 0.28 | 2.99 ± 0.18 | – | – |
| KLRLFDTPHTPKSLLSKARGIDSS [WEE1] | 3.19 ± 0.092 | 3.26 ± 0.32 | – | – |
| SWTAVTPQQTWASPAEVVDLTLDE [C18orf25] | 4.74 ± 0.21 | 4.73 ± 0.2 | – | – |
| FHGTRQYKFDPKTKRILTLQKANS [MMP1] | 2.38 ± 0.5 | 2.6 ± 0.54 | – | – |
| RNRKLKCTFSLTHPANRSCRETGS [SLC22A15] | 3.37 ± 0.16 | 3.44 ± 0.23 | – | – |
| RRLLRRLSPSRGVAQCLRDLVAMQ [ZSWIM9] | 2.49 ± 0.36 | 2.89 ± 0.32 | – | – |
| ECAKAFSRSAILIQHRRTHTDSKY [ZNF396] | 2.55 ± 0.21 | 2.67 ± 0.21 | – | – |
| DDGIKVVKVTFNKQDSLVILTIMA [TMEM106C] | 2.71 ± 1 | 3.11 ± 1 | – | – |
| FDECGITDDQLLALLPSLSHCSQL [PRAME] | 3.31 ± 0.15 | 3.56 ± 0.19 | – | – |
| QAWGSMLEVPAGSRLNLTGLGYFS [CCDC3] | 2.35 ± 0.3 | 1.79 ± 0.2 | – | – |
| GGCGGPRAWSQCGGGGLRAWSQRS [CPOX] | 2.73 ± 0.74 | 2.56 ± 0.46 | – | – |
| PLHAPEAYFPYFKKHNVTAVVRLN [CDC14A] | 2.17 ± 0.094 | 2.08 ± 0.37 | – | – |
| EEKIQVLQQQNEDLKARIDQNTVV [MTUS2] | 5.28 ± 0.24 | 5.28 ± 0.069 | – | – |
| VDPANDTFDIDPMVVTDCIQVDPP [MCOLN1] | 5.09 ± 0.38 | 5.22 ± 0.28 | – | – |
| GGGGAPRGRYGPPSRRSENRVVVS [SRSF1] | 4.36 ± 0.16 | 4.29 ± 0.12 | – | – |
| QKSGLIRHQKIHSGEKPYKCSDCG [ZNF649] | 3.63 ± 0.52 | 4.04 ± 0.29 | – | – |
| KPDDEVKETAHDLDVKSPPEPRSE [RIPK4] | 5.63 ± 0.34 | 5.61 ± 0.37 | – | – |
| LSFEQMTDAHVWNKSVTLYTVKDK [NLN] | 2.61 ± 0.61 | 3.09 ± 0.63 | – | – |
